Test results reported in publication doi:10.1101/2024.12.27.630466.

Molecular target: ErlA
Assay: SEC

ErlB (natural protein)
stoichiometry N (ErlB per ErlA (4:4)): 1
